From publication PMC7650249

Tests used:
[1] = molecular target: activated protein C S12C/R312C mutant, labeled with AF555/AF647 (human) (UniProt P04070); test: other fluorescence titration; single molecule FRET of freely diffusing labeled protein C or APC (150 pM) titrated with thrombin S195A; shift of the peak center of the low FRET population, single-site fit; 20 mM Tris, 145 mM NaCl, 0.02% Tween 20, pH 7.5, 10 mM EDTA, 20 °C
[2] = molecular target: protein C S12C/R312C mutant, labeled with AF555/AF647 (two-chain zymogen) (human) (UniProt P04070); test: as above

Kd [1]: 1100 nM
Kd [2]: 860 nM
Substance: thrombin, catalytically inactive mutant S195A (enzyme)
